Target: SAP11_(CaPm) from 'Ca. P. mali' strain STAA, split-YFP fusion for BiFC ('Candidatus Phytoplasma mali' strain STAA)
Test: split reporter (BiFC, NanoBiT); BiFC with split YFP from pBiFC-2in1 vectors in Nicotiana benthamiana mesophyll protoplasts; confocal microscopy 16 h after transformation; RFP marks transformed protoplasts

With “MdTCP16, split-YFP fusion for BiFC (natural protein)” the percent of transformed protoplasts with a YFP signal was < 92.5%.

Reference: PMC9754288
